Measured values: article PMC9523886
Where two headings read alike, the source gives them in different places.

Columns and labels:
Assay in all cases: FCCS
[1] = target: GFP-DscIA (Discoidin I, paralog A, fused with GFP) (D. discoideum)
[2] = target: GFP-DscIA (Discoidin I, paralog A, fused with GFP) (D. discoideum); remark: listed apart in the source
[3] = target: GFP-DscIA (Discoidin I, paralog A, fused with GFP) (D. discoideum); remark: listed apart in the source

Kd [1]: 2800 nM
Kd [2]: 1900 nM
Kd [3]: 2900 nM
Substance: mCh-MyoII (mCherry-tagged Myosin II) (from UniProt P08799 1-2116) (natural protein)
